# Laboratory results taken from the supplement of paper PMC10567573.
# B1: PHTF1 (parent)
# chain: RVKLISNKGTETDNDPSCVHPIIK
# B2: CHCHD6 (parent)
# chain: MYKLSSEQFHEAASKMESTIKPRR
# Variants of: B1
# Assay: protein stability index of a GFP-peptide fusion (GPS, HEK-293T) (PSI 1-6); higher = more stable
# Conditions: c terminus: a fixed tail appended
# 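Also: lentivirally expressed fusions sorted by FACS into six bins by GFP to DsRed ratio, PSI derived from sequencing read proportions per bin multiplied by bin number.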
row,Variant,protein stability index
1,RVKLISNKGTETDNKPSCVHPIIK,3.79
2,RVKLISNKGTETDNLPSCVHPIIK,3.27
3,RVKLISNKGTETDNMPSCVHPIIK,3.62
4,RVKLISNKGTETDNNPSCVHPIIK,4.06
5,RVKLISNKGTETDNPPSCVHPIIK,4.1
6,RVKLISNKGTETDNQPSCVHPIIK,3.82
7,RVKLISNKGTETDNRPSCVHPIIK,3.45
8,RVKLISNKGTETDNSPSCVHPIIK,3.9
9,RVKLISNKGTETDNTPSCVHPIIK,3.56
10,RVKLISNKGTETDNVPSCVHPIIK,3.68
11,RVKLISNKGTETDNWPSCVHPIIK,2.04
12,RVKLISNKGTETDNYPSCVHPIIK,3
13,RVKLISNKGTETDNDASCVHPIIK,3.98
14,RVKLISNKGTETDNDCSCVHPIIK,3.82
15,RVKLISNKGTETDNDDSCVHPIIK,4.13
16,RVKLISNKGTETDNDESCVHPIIK,4.18
17,RVKLISNKGTETDNDFSCVHPIIK,3.48
18,RVKLISNKGTETDNDGSCVHPIIK,4.55
19,RVKLISNKGTETDNDHSCVHPIIK,3.88
20,RVKLISNKGTETDNDISCVHPIIK,3.67
21,RVKLISNKGTETDNDKSCVHPIIK,4.06
22,RVKLISNKGTETDNDLSCVHPIIK,3.38
23,RVKLISNKGTETDNDMSCVHPIIK,3.96

row,Variant,protein stability index
1,RVKLISNKGTETDNDNSCVHPIIK,3.68
2,RVKLISNKGTETDNDQSCVHPIIK,4.03
3,RVKLISNKGTETDNDRSCVHPIIK,3.96
4,RVKLISNKGTETDNDSSCVHPIIK,4.4
5,RVKLISNKGTETDNDTSCVHPIIK,3.94
6,RVKLISNKGTETDNDVSCVHPIIK,3.97
7,RVKLISNKGTETDNDWSCVHPIIK,2.37
8,RVKLISNKGTETDNDYSCVHPIIK,3.13
9,RVKLISNKGTETDNDPACVHPIIK,4.42
10,RVKLISNKGTETDNDPCCVHPIIK,3.53
11,RVKLISNKGTETDNDPDCVHPIIK,4.08
12,RVKLISNKGTETDNDPECVHPIIK,4.71
13,RVKLISNKGTETDNDPFCVHPIIK,3.12
14,RVKLISNKGTETDNDPGCVHPIIK,4.21
15,RVKLISNKGTETDNDPHCVHPIIK,4.06
16,RVKLISNKGTETDNDPICVHPIIK,3.29
17,RVKLISNKGTETDNDPKCVHPIIK,4.22
18,RVKLISNKGTETDNDPLCVHPIIK,3.93
19,RVKLISNKGTETDNDPMCVHPIIK,3.59
20,RVKLISNKGTETDNDPNCVHPIIK,4.01
21,RVKLISNKGTETDNDPPCVHPIIK,4.41
22,RVKLISNKGTETDNDPQCVHPIIK,4.18
23,RVKLISNKGTETDNDPRCVHPIIK,3.99

row,Variant,protein stability index
1,RVKLISNKGTETDNDPTCVHPIIK,4.27
2,RVKLISNKGTETDNDPVCVHPIIK,4.16
3,RVKLISNKGTETDNDPWCVHPIIK,2.96
4,RVKLISNKGTETDNDPYCVHPIIK,3.36
5,RVKLISNKGTETDNDPSAVHPIIK,4.01
6,RVKLISNKGTETDNDPSDVHPIIK,4.46
7,RVKLISNKGTETDNDPSEVHPIIK,4.85
8,RVKLISNKGTETDNDPSFVHPIIK,3.79
9,RVKLISNKGTETDNDPSGVHPIIK,4.3
10,RVKLISNKGTETDNDPSHVHPIIK,4.49
11,RVKLISNKGTETDNDPSIVHPIIK,4.23
12,RVKLISNKGTETDNDPSKVHPIIK,4.32
13,RVKLISNKGTETDNDPSLVHPIIK,4.09
14,RVKLISNKGTETDNDPSMVHPIIK,4.19
15,RVKLISNKGTETDNDPSNVHPIIK,4.5
16,RVKLISNKGTETDNDPSPVHPIIK,4.03
17,RVKLISNKGTETDNDPSQVHPIIK,4.28
18,RVKLISNKGTETDNDPSRVHPIIK,4.08
19,RVKLISNKGTETDNDPSSVHPIIK,4.42
20,RVKLISNKGTETDNDPSTVHPIIK,4.42
21,RVKLISNKGTETDNDPSVVHPIIK,4.58
22,RVKLISNKGTETDNDPSWVHPIIK,2.77
23,RVKLISNKGTETDNDPSYVHPIIK,3.77

row,Variant,protein stability index
1,RVKLISNKGTETDNDPSCAHPIIK,4.34
2,RVKLISNKGTETDNDPSCCHPIIK,3.93
3,RVKLISNKGTETDNDPSCDHPIIK,4.74
4,RVKLISNKGTETDNDPSCEHPIIK,4.32
5,RVKLISNKGTETDNDPSCFHPIIK,3.31
6,RVKLISNKGTETDNDPSCGHPIIK,3.89
7,RVKLISNKGTETDNDPSCHHPIIK,3.87
8,RVKLISNKGTETDNDPSCIHPIIK,3.84
9,RVKLISNKGTETDNDPSCKHPIIK,4.28
10,RVKLISNKGTETDNDPSCLHPIIK,3.68
11,RVKLISNKGTETDNDPSCMHPIIK,3.88
12,RVKLISNKGTETDNDPSCNHPIIK,4.38
13,RVKLISNKGTETDNDPSCPHPIIK,4.64
14,RVKLISNKGTETDNDPSCQHPIIK,4.21
15,RVKLISNKGTETDNDPSCRHPIIK,4.21
16,RVKLISNKGTETDNDPSCSHPIIK,4.47
17,RVKLISNKGTETDNDPSCTHPIIK,4.36
18,RVKLISNKGTETDNDPSCWHPIIK,3.19
19,RVKLISNKGTETDNDPSCYHPIIK,3.86
20,RVKLISNKGTETDNDPSCVAPIIK,4.3
21,RVKLISNKGTETDNDPSCVCPIIK,3.94
22,RVKLISNKGTETDNDPSCVDPIIK,4.46
23,RVKLISNKGTETDNDPSCVEPIIK,4.76

row,Variant,protein stability index
1,RVKLISNKGTETDNDPSCVFPIIK,3.42
2,RVKLISNKGTETDNDPSCVGPIIK,4.43
3,RVKLISNKGTETDNDPSCVIPIIK,3.6
4,RVKLISNKGTETDNDPSCVKPIIK,4.38
5,RVKLISNKGTETDNDPSCVLPIIK,3.95
6,RVKLISNKGTETDNDPSCVMPIIK,4.22
7,RVKLISNKGTETDNDPSCVNPIIK,4.15
8,RVKLISNKGTETDNDPSCVPPIIK,4.02
9,RVKLISNKGTETDNDPSCVQPIIK,4.61
10,RVKLISNKGTETDNDPSCVRPIIK,4.26
11,RVKLISNKGTETDNDPSCVSPIIK,4.11
12,RVKLISNKGTETDNDPSCVTPIIK,4.49
13,RVKLISNKGTETDNDPSCVVPIIK,3.86
14,RVKLISNKGTETDNDPSCVWPIIK,3.32
15,RVKLISNKGTETDNDPSCVYPIIK,3.91
16,RVKLISNKGTETDNDPSCVHAIIK,3.72
17,RVKLISNKGTETDNDPSCVHCIIK,2.75
18,RVKLISNKGTETDNDPSCVHDIIK,3.95
19,RVKLISNKGTETDNDPSCVHEIIK,4.03
20,RVKLISNKGTETDNDPSCVHFIIK,2.73
21,RVKLISNKGTETDNDPSCVHGIIK,4.08
22,RVKLISNKGTETDNDPSCVHHIIK,4.03
23,RVKLISNKGTETDNDPSCVHIIIK,2.1

row,Variant,protein stability index
1,RVKLISNKGTETDNDPSCVHKIIK,3.84
2,RVKLISNKGTETDNDPSCVHLIIK,2.3
3,RVKLISNKGTETDNDPSCVHMIIK,3.06
4,RVKLISNKGTETDNDPSCVHNIIK,3.61
5,RVKLISNKGTETDNDPSCVHQIIK,3.82
6,RVKLISNKGTETDNDPSCVHRIIK,4
7,RVKLISNKGTETDNDPSCVHSIIK,3.89
8,RVKLISNKGTETDNDPSCVHTIIK,3.87
9,RVKLISNKGTETDNDPSCVHVIIK,3.46
10,RVKLISNKGTETDNDPSCVHWIIK,3.13
11,RVKLISNKGTETDNDPSCVHYIIK,3.4
12,RVKLISNKGTETDNDPSCVHPAIK,4.42
13,RVKLISNKGTETDNDPSCVHPCIK,3.84
14,RVKLISNKGTETDNDPSCVHPDIK,4.63
15,RVKLISNKGTETDNDPSCVHPEIK,4.38
16,RVKLISNKGTETDNDPSCVHPFIK,3.88
17,RVKLISNKGTETDNDPSCVHPGIK,4.48
18,RVKLISNKGTETDNDPSCVHPHIK,4.78
19,RVKLISNKGTETDNDPSCVHPKIK,4.32
20,RVKLISNKGTETDNDPSCVHPLIK,4.22
21,RVKLISNKGTETDNDPSCVHPMIK,3.51
22,RVKLISNKGTETDNDPSCVHPNIK,4.5
23,RVKLISNKGTETDNDPSCVHPPIK,4.67

row,Variant,protein stability index
1,RVKLISNKGTETDNDPSCVHPQIK,4.22
2,RVKLISNKGTETDNDPSCVHPRIK,4.53
3,RVKLISNKGTETDNDPSCVHPSIK,4.6
4,RVKLISNKGTETDNDPSCVHPTIK,4.51
5,RVKLISNKGTETDNDPSCVHPVIK,4.4
6,RVKLISNKGTETDNDPSCVHPWIK,3.68
7,RVKLISNKGTETDNDPSCVHPYIK,4.23
8,RVKLISNKGTETDNDPSCVHPIAK,4.59
9,RVKLISNKGTETDNDPSCVHPICK,4.67
10,RVKLISNKGTETDNDPSCVHPIDK,4.82
11,RVKLISNKGTETDNDPSCVHPIEK,4.82
12,RVKLISNKGTETDNDPSCVHPIFK,4.02
13,RVKLISNKGTETDNDPSCVHPIGK,4.49
14,RVKLISNKGTETDNDPSCVHPIHK,4.74
15,RVKLISNKGTETDNDPSCVHPIKK,4.74
16,RVKLISNKGTETDNDPSCVHPILK,4.47
17,RVKLISNKGTETDNDPSCVHPIMK,4.19
18,RVKLISNKGTETDNDPSCVHPINK,4.59
19,RVKLISNKGTETDNDPSCVHPIPK,4.69
20,RVKLISNKGTETDNDPSCVHPIQK,4.64
21,RVKLISNKGTETDNDPSCVHPIRK,4.6
22,RVKLISNKGTETDNDPSCVHPISK,4.37
23,RVKLISNKGTETDNDPSCVHPITK,4.57

row,Variant,protein stability index
1,RVKLISNKGTETDNDPSCVHPIVK,3.85
2,RVKLISNKGTETDNDPSCVHPIWK,3.52
3,RVKLISNKGTETDNDPSCVHPIYK,4.16
4,RVKLISNKGTETDNDPSCVHPIIA,3.54
5,RVKLISNKGTETDNDPSCVHPIIC,3.36
6,RVKLISNKGTETDNDPSCVHPIID,4.22
7,RVKLISNKGTETDNDPSCVHPIIE,4.13
8,RVKLISNKGTETDNDPSCVHPIIF,2.33
9,RVKLISNKGTETDNDPSCVHPIIG,3.76
10,RVKLISNKGTETDNDPSCVHPIIH,4.11
11,RVKLISNKGTETDNDPSCVHPIII,2.49
12,RVKLISNKGTETDNDPSCVHPIIL,2.67
13,RVKLISNKGTETDNDPSCVHPIIM,3
14,RVKLISNKGTETDNDPSCVHPIIN,4.26
15,RVKLISNKGTETDNDPSCVHPIIP,4.27
16,RVKLISNKGTETDNDPSCVHPIIQ,3.74
17,RVKLISNKGTETDNDPSCVHPIIR,4.09
18,RVKLISNKGTETDNDPSCVHPIIS,3.82
19,RVKLISNKGTETDNDPSCVHPIIT,3.68
20,RVKLISNKGTETDNDPSCVHPIIV,3.17
21,RVKLISNKGTETDNDPSCVHPIIW,2.73
22,RVKLISNKGTETDNDPSCVHPIIY,2.79

# Variants of: B2
# Assay: as above
# Conditions: c terminus: a fixed tail appended
row,Variant,protein stability index
1,AYKLSSEQFHEAASKMESTIKPRR,3.87
2,CYKLSSEQFHEAASKMESTIKPRR,3.59
3,DYKLSSEQFHEAASKMESTIKPRR,5.02
4,EYKLSSEQFHEAASKMESTIKPRR,4.44
5,FYKLSSEQFHEAASKMESTIKPRR,3.7
